According to the supplement of paper PMC9233669:
This sample holds only a part of the variants without activity.

Experiments:
biotinyl-Phe-oxazolone = test: self-aminoacylation, catalytic enhancement (BFO) (fold over background); higher = more active; k-Seq, kA / k0A0; sequences stand for … in GGGAAUGGAUCCACAUCUACGAAUUC…UUCACUGCAGACUUGACGAAGCUG
Procedure, shortened: (§1)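 Each biotinyl-aminoacyl-oxazolone, at 2–1250 μM, was incubated with mutagenized RNA pools (0.43 μM) carrying a 21-nt variable region. The 50 μL reactions contained HEPES/NaCl/KCl/MgCl2/CaCl2 buffer with 5% acetonitrile at pH 6.9–7.0 and ran for 90 minutes at room temperature. After streptavidin capture, RNA was measured by qPCR in triplicate and by Illumina sequencing, and catalytic enhancement was calculated as median kA over the uncatalyzed rate from a pseudo-first-order fit of per-sequence fraction reacted.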

biotinyl-Leu-oxazolone = test: self-aminoacylation, catalytic enhancement (BLO) (fold over background); higher = more active; k-Seq, kA / k0A0; sequences stand for … in GGGAAUGGAUCCACAUCUACGAAUUC…UUCACUGCAGACUUGACGAAGCUG
Procedure, shortened: as §1

biotinyl-Val-oxazolone = test: self-aminoacylation, catalytic enhancement (BVO) (fold over background); higher = more active; k-Seq, kA / k0A0; sequences stand for … in GGGAAUGGAUCCACAUCUACGAAUUC…UUCACUGCAGACUUGACGAAGCUG
Procedure, shortened: as §1

biotinyl-Met-oxazolone = test: self-aminoacylation, catalytic enhancement (BMO) (fold over background); higher = more active; k-Seq, kA / k0A0; sequences stand for … in GGGAAUGGAUCCACAUCUACGAAUUC…UUCACUGCAGACUUGACGAAGCUG
Procedure, shortened: as §1

biotinyl-Trp-oxazolone = test: self-aminoacylation, catalytic enhancement (BWO) (fold over background); higher = more active; k-Seq, kA / k0A0; sequences stand for … in GGGAAUGGAUCCACAUCUACGAAUUC…UUCACUGCAGACUUGACGAAGCUG
Procedure, shortened: as §1

biotinyl-Ile-oxazolone = test: self-aminoacylation, catalytic enhancement (BIO) (fold over background); higher = more active; k-Seq, kA / k0A0; sequences stand for … in GGGAAUGGAUCCACAUCUACGAAUUC…UUCACUGCAGACUUGACGAAGCUG
Procedure, shortened: as §1

| Sequence | self-aminoacylation (biotinyl-Phe-oxazolone) | self-aminoacylation (biotinyl-Leu-oxazolone) | self-aminoacylation (biotinyl-Val-oxazolone) | self-aminoacylation (biotinyl-Met-oxazolone) | self-aminoacylation (biotinyl-Trp-oxazolone) | self-aminoacylation (biotinyl-Ile-oxazolone) |
| --- | --- | --- | --- | --- | --- | --- |
| UUUCACCUAGGUCAUCGGGUG [Fam2.2 aminoacylation ribozyme variant] | 103 | 19.5 | 8.76 | 15.9 | 13.4 | 9.15 |
| CUUACCCUGGCCAUCGAGUGA [Fam2.1 aminoacylation ribozyme variant] | 9.12 | 4.34 | 2.65 | 2.99 | 3.51 | 2.78 |
| AUUCACCUAGGUUAUCGGGUC [Fam2.2 aminoacylation ribozyme variant] | 1.59 | 1.11 | 1.08 | 1.13 | 0.944 | 1.2 |
| ACUACCCUGGUCAUCGAGUGG [Fam2.1 aminoacylation ribozyme variant] | 110 | 22.5 | 8.27 | 20.8 | 20.2 | 7 |
| AUUUACCUAGGUCAUGGGGUG [Fam2.2 aminoacylation ribozyme variant] | 25.7 | 6.06 | 2.85 | 4.54 | 4.29 | 3.3 |
| AGUCACCUAGGUCAUCGGGAG [Fam2.2 aminoacylation ribozyme variant] | 1.38 | 1.74 | 1.76 | 1.93 | 2.56 | 1.65 |
| CGACACUUCAAGCAAGCGGUC [Fam1B.1 aminoacylation ribozyme variant] | 0.837 | 1.23 | 0.939 | 1.27 | 1.21 | 1.09 |
| AAUACUCUGGUCAUCGAGUGA [Fam2.1 aminoacylation ribozyme variant] | 8.91 | 3.72 | 2.77 | 3.85 | 5.7 | 2.59 |
| CCACACUUCACGCAAUCGGUG [Fam1B.1 aminoacylation ribozyme variant] | 52.2 | 7.74 | 3.5 | 5.89 | 6.24 | 3.09 |
| CUAAUUCAAACAAGCGGUCUG [Fam1A.1 aminoacylation ribozyme variant] | 0.798 | 0.847 | 0.972 | 1.1 | 0.632 | 0.874 |
| CUACUUCAUACAAUCGGACUG [Fam1A.1 aminoacylation ribozyme variant] | 0.573 | 0.609 | 0.676 | 0.418 | 0.387 | 0.751 |
| CUACUACAAACAAUCGAUCUG [Fam1A.1 aminoacylation ribozyme variant] | 0.759 | 0.593 | 0.719 | 0.52 | 0.665 | 0.808 |
| AAGUUUGCUAAGAGUCGCACG [Fam3.1 aminoacylation ribozyme variant] | 5.94 | 0.977 | 1.12 | 0.636 | 2.06 | 1.17 |
| AUUCACAUAGGUCCUCGGGUG [Fam2.2 aminoacylation ribozyme variant] | 51.3 | 9.43 | 4.71 | 7.55 | 7.63 | 4.33 |
| UCACACUUCAAGCAAUCGGUC [Fam1B.1 aminoacylation ribozyme variant] | 49.8 | 1.43 | 1.2 | 0.998 | 22 | 0.996 |
| AUUACCCUGGUCAUCGUUUGA [Fam2.1 aminoacylation ribozyme variant] | 0.693 | 0.963 | 0.821 | 0.71 | 0.734 | 0.923 |
| CUACUUCAGACAAUCGGUAUG [Fam1A.1 aminoacylation ribozyme variant] | 0.586 | 0.717 | 0.704 | 0.636 | 0.529 | 0.719 |
| AUUUGCCUAGGUCAUCGGGUG [Fam2.2 aminoacylation ribozyme variant] | 195 | 38.3 | 14.1 | 28 | 24.6 | 16 |
| AUUACGCUGGUCAUCUAGUGA [Fam2.1 aminoacylation ribozyme variant] | 27.3 | 5.42 | 2.89 | 4.83 | 6.02 | 3.21 |
| AUUAACCUGGUUAUCGAGUGA [Fam2.1 aminoacylation ribozyme variant] | 41.7 | 9.67 | 3.81 | 8.32 | 10.7 | 4.13 |
| AAGUUUGCUAAUAUUCGUAAG [Fam3.1 aminoacylation ribozyme variant] | 0.919 | 0.636 | 0.779 | 0.616 | 0.911 | 0.83 |
| CUACUUCAAACAACCGGUCUC [Fam1A.1 aminoacylation ribozyme variant] | 0.745 | 0.619 | 0.728 | 0.724 | 0.734 | 0.933 |
| CUAAUUCAAACAAUAGGUCUG [Fam1A.1 aminoacylation ribozyme variant] | 1.11 | 0.706 | 0.77 | 0.704 | 0.666 | 0.773 |
| CCACACUUUAAGCCAUCGGUC [Fam1B.1 aminoacylation ribozyme variant] | 0.541 | 0.755 | 0.879 | 0.743 | 0.783 | 0.964 |
| UUACUUCAAACAAUCGUUCUG [Fam1A.1 aminoacylation ribozyme variant] | 2.05 | 0.983 | 0.975 | 1 | 1.05 | 0.996 |
| AAGUUUGCUAUAAGUCGCAAG [Fam3.1 aminoacylation ribozyme variant] | 1 | 0.726 | 0.9 | 0.995 | 0.892 | 1.12 |

| Sequence | self-aminoacylation (biotinyl-Phe-oxazolone) | self-aminoacylation (biotinyl-Leu-oxazolone) | self-aminoacylation (biotinyl-Val-oxazolone) | self-aminoacylation (biotinyl-Met-oxazolone) | self-aminoacylation (biotinyl-Trp-oxazolone) | self-aminoacylation (biotinyl-Ile-oxazolone) |
| --- | --- | --- | --- | --- | --- | --- |
| CUACAUCAAACAAUCGGUUUG [Fam1A.1 aminoacylation ribozyme variant] | 1.9 | 0.781 | 0.821 | 0.646 | 1.05 | 0.906 |
| GCACACUUGAAGCAAUCGGUC [Fam1B.1 aminoacylation ribozyme variant] | 1.46 | 1.29 | 1.4 | 1.11 | 1.99 | 1.45 |
| UUUCACCAAGGUCAUCGGGUG [Fam2.2 aminoacylation ribozyme variant] | 58.3 | 10.3 | 6.02 | 9.41 | 10.2 | 5.54 |
| AUUACCCUGGUCAUCUAUUGA [Fam2.1 aminoacylation ribozyme variant] | 0.868 | 0.839 | 1.11 | 0.879 | 0.789 | 1.08 |
| AUUACCCUGGCCAUUGAGUGA [Fam2.1 aminoacylation ribozyme variant] | 4.63 | 4.53 | 2.41 | 3.72 | 4.73 | 2.13 |
| UUUCAUCUAGGUCAUCGGGUG [Fam2.2 aminoacylation ribozyme variant] | 33.7 | 6.45 | 4.51 | 5.04 | 6.47 | 4.37 |
| AAUUUUGCUAAUAGUUGCAAG [Fam3.1 aminoacylation ribozyme variant] | 2.06 | 1.63 | 1.53 | 1.54 | 1.75 | 1.73 |
| UUUCACCCAGGUCAUCGGGUG [Fam2.2 aminoacylation ribozyme variant] | 35.1 | 4.54 | 4.69 | 4.86 | 5.64 | 3.32 |
| AAGUUUUUUAAUAGUCGCAAG [Fam3.1 aminoacylation ribozyme variant] | 3.28 | 1.71 | 1.62 | 1.58 | 2.02 | 2.01 |
| AAGUUUGCGAAUAGUCGCUAG [Fam3.1 aminoacylation ribozyme variant] | 3.9 | 0.918 | 1 | 1.45 | 1.4 | 1.38 |
| AUUCACCUACGUAAUCGGGUG [Fam2.2 aminoacylation ribozyme variant] | 45.9 | 9.03 | 3.4 | 6.45 | 5.66 | 3.09 |
| AAGUUUGCUAAUAUGCGCAAG [Fam3.1 aminoacylation ribozyme variant] | 1.34 | 0.843 | 0.61 | 0.89 | 1.2 | 0.847 |
| AUUCUCCUAAGUCAUCGGGUG [Fam2.2 aminoacylation ribozyme variant] | 154 | 21.3 | 9.67 | 16 | 16 | 10.3 |
| AUUACCUUGGUCAUCUAGUGA [Fam2.1 aminoacylation ribozyme variant] | 47.8 | 8.77 | 4.72 | 9.34 | 11.2 | 4.49 |
| AUUACCCUGGUCAUCGAGCGU [Fam2.1 aminoacylation ribozyme variant] | 4.33 | 4.95 | 2.36 | 4.25 | 4.83 | 2.77 |
| AAGUUUGAUAAUAGUCGAAAG [Fam3.1 aminoacylation ribozyme variant] | 1.03 | 0.543 | 0.592 | 0.568 | 0.785 | 0.705 |
| AAGUUGGCUAAUAGUCGUAAG [Fam3.1 aminoacylation ribozyme variant] | 10.7 | 1.14 | 1.37 | 1.33 | 4.1 | 1.49 |
| AUUACCAUGUUCAUCGAGUGA [Fam2.1 aminoacylation ribozyme variant] | 36.4 | 7.2 | 3.79 | 7.52 | 9.17 | 4.04 |
| AUUACCCUGGCCAUCGAGGGA [Fam2.1 aminoacylation ribozyme variant] | 0.483 | 1.47 | 2.96 | 1.01 | 1.31 | 1.9 |
| AUUCACAUAGGUAAUCGGGUG [Fam2.2 aminoacylation ribozyme variant] | 34 | 5.2 | 2.6 | 4.85 | 4.8 | 2.65 |
| CCACACUUCUCGCAAUCGGUC [Fam1B.1 aminoacylation ribozyme variant] | 0.867 | 1.04 | 1.09 | 0.889 | 0.888 | 1.06 |
| AAGUUUGCUAGUAGUCGCAAU [Fam3.1 aminoacylation ribozyme variant] | 1.2 | 0.95 | 1.08 | 0.922 | 0.724 | 1.01 |
| AUUCACCAAGGUCAUCUGGUG [Fam2.2 aminoacylation ribozyme variant] | 28 | 5.5 | 2.29 | 3.53 | 3.52 | 2.38 |
| CCACACUUCCAGCAUUCGGUC [Fam1B.1 aminoacylation ribozyme variant] | 1.12 | 2.42 | 2.81 | 2.05 | 2.58 | 2.48 |
| ACUACCCUGGCCAUCGAGUGA [Fam2.1 aminoacylation ribozyme variant] | 27.3 | 6.69 | 3.77 | 4.33 | 7.18 | 3.53 |
